Numbered stars: 1 amine (or outer) side, 2 acyl side, 3 side chain; on linkers, the order of the positions; unused ones are H or OH. Square brackets hold non-standard residues; d marks the D form. Side chains are listed from the residue outwards. Ends that are not written are not given here. * marks the point of attachment. γGlu = O=C(O)[C@H](CCC(=O)[*:2])N[*:1]; Palmitoyl = CCCCCCCCCCCCCCCC(=O)*; Myristoyl = CCCCCCCCCCCCCC(=O)*; Aib = CC(C)(N)C(=O)O
Key:
Test in all cases: cell-based or functional assay
GLP-1 receptor [1] = molecular target: T1, GLP-1 receptor (UniProt P43220 24-463, limits assumed)
glucagon receptor [2] = molecular target: T2, glucagon receptor (human, UniProt P47871 26-477)
GLP-1 receptor [3] = molecular target: T1, GLP-1 receptor; remark: listed apart in the source
glucagon receptor [4] = molecular target: T2, glucagon receptor; remark: listed apart in the source
glucagon receptor [5] = molecular target: T2, glucagon receptor; remark: listed apart in the source
glucagon receptor [6] = molecular target: T2, glucagon receptor; remark: listed apart in the source
GLP-1 receptor [7] = molecular target: T1, GLP-1 receptor; remark: listed apart in the source
glucagon receptor [8] = molecular target: T2, glucagon receptor; remark: listed apart in the source
GLP-1 receptor [9] = molecular target: T1, GLP-1 receptor; remark: listed apart in the source
glucagon receptor [10] = molecular target: T2, glucagon receptor; remark: listed apart in the source

T2 sequence (P47871 26-477): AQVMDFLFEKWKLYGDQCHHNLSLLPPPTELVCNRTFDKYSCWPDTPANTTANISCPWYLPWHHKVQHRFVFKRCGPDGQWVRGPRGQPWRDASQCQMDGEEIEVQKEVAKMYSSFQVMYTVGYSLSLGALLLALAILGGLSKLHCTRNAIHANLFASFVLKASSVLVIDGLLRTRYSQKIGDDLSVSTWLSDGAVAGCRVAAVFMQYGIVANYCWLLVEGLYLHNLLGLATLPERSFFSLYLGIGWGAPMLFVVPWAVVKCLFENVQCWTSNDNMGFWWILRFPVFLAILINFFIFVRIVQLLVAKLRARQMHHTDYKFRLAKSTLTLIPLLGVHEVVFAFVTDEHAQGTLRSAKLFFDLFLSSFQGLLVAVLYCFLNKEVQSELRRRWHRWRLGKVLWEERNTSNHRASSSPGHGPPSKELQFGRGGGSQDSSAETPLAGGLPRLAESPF

HSQGTFTSDYSKYLD[Aib]RRA[Aib]DFV[Aib]WLMNT [AIB 16, 20, 24 Glucagon]
GLP-1 Receptor, Average (assay of Example 13) (GLP-1 receptor [1]): 12.2 nM

B1: Peptide 78** (Table 11) (peptide)
peptide: H[Aib]QGTFTSDK([γGlu-γGlu-Myristoyl])SKYLD[Aib]RRAQDFVCWLMNT-NH2
modifications: N-terminus assumed
SMILES: CCCCCCCCCCCCCC(=O)N[C@@H](CCC(=O)N[C@@H](CCC(=O)NCCCC[C@H](NC(=O)[C@H](CC(=O)O)NC(=O)[C@H](CO)NC(=O)[C@@H](NC(=O)[C@H](Cc1ccccc1)NC(=O)[C@@H](NC(=O)CNC(=O)[C@H](CCC(N)=O)NC(=O)C(C)(C)NC(=O)[C@@H](N)Cc1c[nH]cn1)[C@@H](C)O)[C@@H](C)O)C(=O)N[C@@H](CO)C(=O)N[C@@H](CCCCN)C(=O)N[C@@H](Cc1ccc(O)cc1)C(=O)N[C@@H](CC(C)C)C(=O)N[C@@H](CC(=O)O)C(=O)NC(C)(C)C(=O)N[C@@H](CCCNC(=N)N)C(=O)N[C@@H](CCCNC(=N)N)C(=O)N[C@@H](C)C(=O)N[C@@H](CCC(N)=O)C(=O)N[C@@H](CC(=O)O)C(=O)N[C@@H](Cc1ccccc1)C(=O)N[C@H](C(=O)N[C@@H](CS)C(=O)N[C@@H](Cc1c[nH]c2ccccc12)C(=O)N[C@@H](CC(C)C)C(=O)N[C@@H](CCSC)C(=O)N[C@@H](CC(N)=O)C(=O)N[C@H](C(N)=O)[C@@H](C)O)C(C)C)C(=O)O)C(=O)O
EC50 at Glucagon Receptor (glucagon receptor [2]): 9 pM | EC50 at GLP-1 Receptor (GLP-1 receptor [3]): 8 pM

HSQGTFTSDYSKYLD[Aib]RRAQDFVQWLMDE [AIB 16/D28/E29 Glucagon]
EC50, in vitro activity at the glucagon receptor (glucagon receptor [4]): 0.08 nM

HSQGTFTSDYSKYLDSRRAQDFVQWLMDE [D28/E29 Glucagon]
Observed EC50s (nM) in Cells Overexpressing the Glucagon Receptor, Test 3 (glucagon receptor [5]): 0.03 nM | EC50, in vitro activity at the glucagon receptor (glucagon receptor [4]): 0.06 nM

B2: Peptide dS2E16K20K30-C16 Gluc Amide (peptide)
peptide: HXQGTFTSDYSKYLDERRAKDFVQWLMNTK
modifications: d-Ser at position 2; Lys at position 30 acylated with a C16 fatty acyl group; C-terminal amide
EC50 at the glucagon receptor (glucagon receptor [6]): 4.89 nM | EC50 at the GLP-1 receptor (GLP-1 receptor [7]): 3.05 nM

HSQGTFTSDYSKYLDSRRAQDFVQWLMDTE [glucagon analog D28, E30]
Observed EC50s (nM) in Cells Overexpressing the Glucagon Receptor, Test 3 (glucagon receptor [5]): 0.05 nM

HSQGTFTSDYSRYLDSRRAQDFVQWLMNK [Glucagon R12 K29]
cAMP Induction, EC50 (glucagon receptor [8]): 0.81 nM | cAMP Induction, EC50 (GLP-1 receptor [9]): 0.41 nM

HSQGTFTSDYSKYLD[Aib]RRA[Aib]DFVQWLMNT [AIB 16, 20 Glucagon]
Glucagon Receptor, Average (assay of Example 13) (glucagon receptor [10]): 0.26 nM | GLP-1 Receptor, Average (assay of Example 13) (GLP-1 receptor [1]): 13.6 nM

B3: Peptide 79** (Table 11) (peptide)
peptide: H[Aib]QGTFTSDK([Ala-Ala-Palmitoyl])SKYLD[Aib]RRAQDFVCWLMNT-NH2
modifications: N-terminus assumed
SMILES: CCCCCCCCCCCCCCCC(=O)N[C@@H](C)C(=O)N[C@@H](C)C(=O)NCCCC[C@H](NC(=O)[C@H](CC(=O)O)NC(=O)[C@H](CO)NC(=O)[C@@H](NC(=O)[C@H](Cc1ccccc1)NC(=O)[C@@H](NC(=O)CNC(=O)[C@H](CCC(N)=O)NC(=O)C(C)(C)NC(=O)[C@@H](N)Cc1c[nH]cn1)[C@@H](C)O)[C@@H](C)O)C(=O)N[C@@H](CO)C(=O)N[C@@H](CCCCN)C(=O)N[C@@H](Cc1ccc(O)cc1)C(=O)N[C@@H](CC(C)C)C(=O)N[C@@H](CC(=O)O)C(=O)NC(C)(C)C(=O)N[C@@H](CCCNC(=N)N)C(=O)N[C@@H](CCCNC(=N)N)C(=O)N[C@@H](C)C(=O)N[C@@H](CCC(N)=O)C(=O)N[C@@H](CC(=O)O)C(=O)N[C@@H](Cc1ccccc1)C(=O)N[C@H](C(=O)N[C@@H](CS)C(=O)N[C@@H](Cc1c[nH]c2ccccc12)C(=O)N[C@@H](CC(C)C)C(=O)N[C@@H](CCSC)C(=O)N[C@@H](CC(N)=O)C(=O)N[C@H](C(N)=O)[C@@H](C)O)C(C)C
EC50 at Glucagon Receptor (glucagon receptor [2]): 10 pM | EC50 at GLP-1 Receptor (GLP-1 receptor [3]): 8 pM

B4: Peptide 80** (Table 11) (peptide)
peptide: H[Aib]QGTFTSDK([γGlu-γGlu-Palmitoyl])SKYLD[Aib]RRAQDFVCWLMNT-NH2
modifications: N-terminus assumed
SMILES: CCCCCCCCCCCCCCCC(=O)N[C@@H](CCC(=O)N[C@@H](CCC(=O)NCCCC[C@H](NC(=O)[C@H](CC(=O)O)NC(=O)[C@H](CO)NC(=O)[C@@H](NC(=O)[C@H](Cc1ccccc1)NC(=O)[C@@H](NC(=O)CNC(=O)[C@H](CCC(N)=O)NC(=O)C(C)(C)NC(=O)[C@@H](N)Cc1c[nH]cn1)[C@@H](C)O)[C@@H](C)O)C(=O)N[C@@H](CO)C(=O)N[C@@H](CCCCN)C(=O)N[C@@H](Cc1ccc(O)cc1)C(=O)N[C@@H](CC(C)C)C(=O)N[C@@H](CC(=O)O)C(=O)NC(C)(C)C(=O)N[C@@H](CCCNC(=N)N)C(=O)N[C@@H](CCCNC(=N)N)C(=O)N[C@@H](C)C(=O)N[C@@H](CCC(N)=O)C(=O)N[C@@H](CC(=O)O)C(=O)N[C@@H](Cc1ccccc1)C(=O)N[C@H](C(=O)N[C@@H](CS)C(=O)N[C@@H](Cc1c[nH]c2ccccc12)C(=O)N[C@@H](CC(C)C)C(=O)N[C@@H](CCSC)C(=O)N[C@@H](CC(N)=O)C(=O)N[C@H](C(N)=O)[C@@H](C)O)C(C)C)C(=O)O)C(=O)O
EC50 at Glucagon Receptor (glucagon receptor [2]): 6 pM | EC50 at GLP-1 Receptor (GLP-1 receptor [3]): 8 pM

B5: Peptide 77** (Table 11) (peptide)
peptide: H[Aib]QGTFTSDK(Myristoyl)SKYLD[Aib]RRAQDFVCWLMNT-NH2
modifications: N-terminus assumed
SMILES: CCCCCCCCCCCCCC(=O)NCCCC[C@H](NC(=O)[C@H](CC(=O)O)NC(=O)[C@H](CO)NC(=O)[C@@H](NC(=O)[C@H](Cc1ccccc1)NC(=O)[C@@H](NC(=O)CNC(=O)[C@H](CCC(N)=O)NC(=O)C(C)(C)NC(=O)[C@@H](N)Cc1c[nH]cn1)[C@@H](C)O)[C@@H](C)O)C(=O)N[C@@H](CO)C(=O)N[C@@H](CCCCN)C(=O)N[C@@H](Cc1ccc(O)cc1)C(=O)N[C@@H](CC(C)C)C(=O)N[C@@H](CC(=O)O)C(=O)NC(C)(C)C(=O)N[C@@H](CCCNC(=N)N)C(=O)N[C@@H](CCCNC(=N)N)C(=O)N[C@@H](C)C(=O)N[C@@H](CCC(N)=O)C(=O)N[C@@H](CC(=O)O)C(=O)N[C@@H](Cc1ccccc1)C(=O)N[C@H](C(=O)N[C@@H](CS)C(=O)N[C@@H](Cc1c[nH]c2ccccc12)C(=O)N[C@@H](CC(C)C)C(=O)N[C@@H](CCSC)C(=O)N[C@@H](CC(N)=O)C(=O)N[C@H](C(N)=O)[C@@H](C)O)C(C)C
EC50 at Glucagon Receptor (glucagon receptor [2]): 144 pM | EC50 at GLP-1 Receptor (GLP-1 receptor [3]): 63 pM

B6: Peptide dS2K10(C16)E16K20-Gluc Amide (peptide)
peptide: HXQGTFTSDKSKYLDERRAKDFVQWLMNT
modifications: d-Ser at position 2; Lys at position 10 acylated with a C16 fatty acyl group; C-terminal amide
EC50 at the glucagon receptor (glucagon receptor [6]): 0.076 nM | EC50 at the GLP-1 receptor (GLP-1 receptor [7]): 0.041 nM

HSQGTFTSDYSKYLESRRAQDFVQWLMDT [glucagon analog D28, E15]
Observed EC50s (nM) in Cells Overexpressing the Glucagon Receptor, Test 3 (glucagon receptor [5]): 0.15 nM

HSQGTFTSDYSKYLDSRRAQDFVQWLMNTE [glucagon analog E30]
Observed EC50s (nM) in Cells Overexpressing the Glucagon Receptor, Test 2 (glucagon receptor [5]): 0.04 nM

HSQGTFTSDYSKYLDSRRAQDFVQWLMNTKK [glucagon analog K30, K31]
Observed EC50s (nM) in Cells Overexpressing the Glucagon Receptor, Test 2 (glucagon receptor [5]): 0.12 nM

B7: Peptide dS2E16K20K30-C14 Gluc Amide (peptide)
peptide: B2 peptide
modifications: d-Ser at position 2; Lys at position 30 acylated with a C14 fatty acyl group; C-terminal amide
EC50 at the glucagon receptor (glucagon receptor [6]): 3.53 nM | EC50 at the GLP-1 receptor (GLP-1 receptor [7]): 0.84 nM

B8: Peptide 81** (Table 11) (peptide)
peptide: H[Aib]QGTFTSDK([Ala-Ala-Myristoyl])SKYLD[Aib]RRAQDFVCWLMNT-NH2
modifications: N-terminus assumed
SMILES: CCCCCCCCCCCCCC(=O)N[C@@H](C)C(=O)N[C@@H](C)C(=O)NCCCC[C@H](NC(=O)[C@H](CC(=O)O)NC(=O)[C@H](CO)NC(=O)[C@@H](NC(=O)[C@H](Cc1ccccc1)NC(=O)[C@@H](NC(=O)CNC(=O)[C@H](CCC(N)=O)NC(=O)C(C)(C)NC(=O)[C@@H](N)Cc1c[nH]cn1)[C@@H](C)O)[C@@H](C)O)C(=O)N[C@@H](CO)C(=O)N[C@@H](CCCCN)C(=O)N[C@@H](Cc1ccc(O)cc1)C(=O)N[C@@H](CC(C)C)C(=O)N[C@@H](CC(=O)O)C(=O)NC(C)(C)C(=O)N[C@@H](CCCNC(=N)N)C(=O)N[C@@H](CCCNC(=N)N)C(=O)N[C@@H](C)C(=O)N[C@@H](CCC(N)=O)C(=O)N[C@@H](CC(=O)O)C(=O)N[C@@H](Cc1ccccc1)C(=O)N[C@H](C(=O)N[C@@H](CS)C(=O)N[C@@H](Cc1c[nH]c2ccccc12)C(=O)N[C@@H](CC(C)C)C(=O)N[C@@H](CCSC)C(=O)N[C@@H](CC(N)=O)C(=O)N[C@H](C(N)=O)[C@@H](C)O)C(C)C
EC50 at GLP-1 Receptor (GLP-1 receptor [3]): 18 pM

B9: Peptide dS2K10(C14)E16K20-Gluc Amide (peptide)
peptide: HXQGTFTSDKSKYLDERRAKDFVQWLMNT
modifications: d-Ser at position 2; Lys at position 10 acylated with a C14 fatty acyl group; C-terminal amide
EC50 at the glucagon receptor (glucagon receptor [6]): 0.155 nM | EC50 at the GLP-1 receptor (GLP-1 receptor [7]): 0.041 nM
